Substrate in the data set: O=C(O)CCC(=O)C(=O)O
The experiment in a line: purified protein, by the assay type. The conditions noted are these: pH 7.5, 25.0 °C.

“And” between values parts separate entries of the source, which are not always exact repeats. Equal entries are not always repeated.

B1: KDM5B (Homo sapiens) (protein)
chain: MEAATTLHPGPRPALPLGGPGPLGEFLPPPECPVFEPSWEEFADPFAFIHKIRPIAEQTGICKVRPPPDWQPPFACDVDKLHFTPRIQRLNELEAQTRVKLNFLDQIAKYWELQGSTLKIPHVERKILDLFQLNKLVAEEGGFAVVCKDRKWTKIATKMGFAPGKAVGSHIRGHYERILNPYNLFLSGDSLRCLQKPNLTTDTKDKEYKPHDIPQRQSVQPSETCPPARRAKRMRAEAMNIKIEPEETTEARTHNLRRRMGCPTPKCENEKEMKSSIKQEPIERKDYIVENEKEKPKSRSKKATNAVDLYVCLLCGSGNDEDRLLLCDGCDDSYHTFCLIPPLHDVPKGDWRCPKCLAQECSKPQEAFGFEQAARDYTLRTFGEMADAFKSDYFNMPVHMVPTELVEKEFWRLVSTIEEDVTVEYGADIASKEFGSGFPVRDGKIKLSPEEEEYLDSGWNLNNMPVMEQSVLAHITADICGMKLPWLYVGMCFSSFCWHIEDHWSYSINYLHWGEPKTWYGVPGYAAEQLENVMKKLAPELFVSQPDLLHQLVTIMNPNTLMTHEVPVYRTNQCAGEFVITFPRAYHSGFNQGFNFAEAVNFCTVDWLPLGRQCVEHYRLLHRYCVFSHDEMICKMASKADVLDVVVASTVQKDMAIMIEDEKALRETVRKLGVIDSERMDFELLPDDERQCVKCKTTCFMSAISCSCKPGLLVCLHHVKELCSCPPYKYKLRYRYTLDDLYPMMNALKLRAESYNEWALNVNEALEAKINKKKSLVSFKALIEESEMKKFPDNDLLRHLRLVTQDAEKCASVAQQLLNGKR
Take B1: the Michaelis-Menten constant (Km) (as a rule, the concentration of substrate that gives half-maximal velocity) runs as follows: (other: 0 μM oxaloacetate) 5.0 µM; (other: 0 μM succinate) 3.4 µM; (other: KDM5B(1–822), no inhibitor, 5 μM H3K4me2(1–21)) 3 µM and 2.6 ± 0.6 µM; (other: Table S1, succinate data set, competitive inhibition model) 3.01 µM; (other: Table S2, oxaloacetate data set, competitive inhibition model) 5.91 µM.

Source of the values: paper PMC5636616, “Studies on the Interaction of the Histone Demethylase KDM5B with Tricarboxylic Acid Cycle Intermediates” (Journal of Molecular Biology, 2017).
